What follows are sequences tested on Escherichia coli TOP10 (assay: shrunken log2 fold change of peptide-encoding DNA abundance (4.5 h post-induction vs induction); higher = less antimicrobial activity (less host growth inhibition)). Conditions: time post-induction: 4.5 h; library: site-saturation at positions 5, 18, 19, 20.
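Note: peptides expressed intracellularly from a pBAD plasmid library in pooled LB shake-flask culture, induced with 0.3% L-arabinose, DNA abundance read by NGS, three biological replicates, DESeq2 with apeglm shrinkage.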

Row | Sequence | shrunken log2 fold change
1 | RRIRERPPRLPRPRPRPMIEPRP | -0.184
2 | RRIRERPPRLPRPRPRPMIFPRP | -0.223
3 | RRIRERPPRLPRPRPRPMILPRP | -0.388
4 | RRIRERPPRLPRPRPRPMLVPRP | -0.225
5 | RRIRERPPRLPRPRPRPMNHPRP | -0.811
6 | RRIRERPPRLPRPRPRPMPKPRP | 0.153
7 | RRIRERPPRLPRPRPRPMQMPRP | -0.254
8 | RRIRERPPRLPRPRPRPMRGPRP | 1.19
9 | RRIRERPPRLPRPRPRPMTDPRP | -0.131
10 | RRIRERPPRLPRPRPRPMWSPRP | -0.351
11 | RRIRERPPRLPRPRPRPNAEPRP | 0.103
12 | RRIRERPPRLPRPRPRPNAFPRP | -0.568
13 | RRIRERPPRLPRPRPRPNAWPRP | 0.113
14 | RRIRERPPRLPRPRPRPNDLPRP | -0.016
15 | RRIRERPPRLPRPRPRPNDMPRP | -0.0595
16 | RRIRERPPRLPRPRPRPNDRPRP | -0.426
17 | RRIRERPPRLPRPRPRPNENPRP | -0.111
18 | RRIRERPPRLPRPRPRPNEVPRP | 0.0321
19 | RRIRERPPRLPRPRPRPNFCPRP | 0.00589
20 | RRIRERPPRLPRPRPRPNFTPRP | -0.111
21 | RRIRERPPRLPRPRPRPNFWPRP | 1.9
22 | RRIRERPPRLPRPRPRPNGEPRP | -0.0424

Row | Sequence | shrunken log2 fold change
23 | RRIRERPPRLPRPRPRPNGLPRP | -0.0319
24 | RRIRERPPRLPRPRPRPNGVPRP | -0.2
25 | RRIRERPPRLPRPRPRPNHVPRP | -0.25
26 | RRIRERPPRLPRPRPRPNILPRP | -0.991
27 | RRIRERPPRLPRPRPRPNIRPRP | -0.273
28 | RRIRERPPRLPRPRPRPNKWPRP | -0.576
29 | RRIRERPPRLPRPRPRPNLQPRP | -0.208
30 | RRIRERPPRLPRPRPRPNLRPRP | 0.0952
31 | RRIRERPPRLPRPRPRPNNCPRP | -0.24
32 | RRIRERPPRLPRPRPRPNPDPRP | -0.2
33 | RRIRERPPRLPRPRPRPNQFPRP | -0.525
34 | RRIRERPPRLPRPRPRPNRDPRP | -0.192
35 | RRIRERPPRLPRPRPRPNTCPRP | -1.13
36 | RRIRERPPRLPRPRPRPNTKPRP | 0.0156
37 | RRIRERPPRLPRPRPRPNTNPRP | -0.0492
38 | RRIRERPPRLPRPRPRPNTTPRP | 0.123
39 | RRIRERPPRLPRPRPRPNVKPRP | -0.195
40 | RRIRERPPRLPRPRPRPNWQPRP | 0.103
41 | RRIRERPPRLPRPRPRPNYDPRP | -0.873
42 | RRIRERPPRLPRPRPRPNYMPRP | -0.667
43 | RRIRERPPRLPRPRPRPPAIPRP | -0.0287
44 | RRIRERPPRLPRPRPRPPDAPRP | 0.142

Row | Sequence | shrunken log2 fold change
45 | RRIRERPPRLPRPRPRPPDEPRP | -0.0361
46 | RRIRERPPRLPRPRPRPPDRPRP | -0.00621
47 | RRIRERPPRLPRPRPRPPFIPRP | -0.299
48 | RRIRERPPRLPRPRPRPPFNPRP | -0.275
49 | RRIRERPPRLPRPRPRPPFRPRP | 0.173
50 | RRIRERPPRLPRPRPRPPFVPRP | 0.072
51 | RRIRERPPRLPRPRPRPPHPPRP | -0.0298
52 | RRIRERPPRLPRPRPRPPIDPRP | 0.0361
53 | RRIRERPPRLPRPRPRPPKCPRP | 0.0212
54 | RRIRERPPRLPRPRPRPPKTPRP | -0.124
55 | RRIRERPPRLPRPRPRPPMPPRP | 0.0249
56 | RRIRERPPRLPRPRPRPPMTPRP | -0.163
57 | RRIRERPPRLPRPRPRPPNIPRP | -0.207
58 | RRIRERPPRLPRPRPRPPPYPRP | -0.231
59 | RRIRERPPRLPRPRPRPPQIPRP | 0.15
60 | RRIRERPPRLPRPRPRPPQSPRP | 0.0516
61 | RRIRERPPRLPRPRPRPPRCPRP | -0.0309
62 | RRIRERPPRLPRPRPRPPRGPRP | 0.519
63 | RRIRERPPRLPRPRPRPPTAPRP | 0.0872
64 | RRIRERPPRLPRPRPRPPTYPRP | -0.168
65 | RRIRERPPRLPRPRPRPPYIPRP | -0.252
66 | RRIRERPPRLPRPRPRPPYNPRP | -0.728

Row | Sequence | shrunken log2 fold change
67 | RRIRERPPRLPRPRPRPQAVPRP | 0.0552
68 | RRIRERPPRLPRPRPRPQCWPRP | -0.0051
69 | RRIRERPPRLPRPRPRPQEVPRP | -0.0156
70 | RRIRERPPRLPRPRPRPQFCPRP | -0.0627
71 | RRIRERPPRLPRPRPRPQFGPRP | 0.222
72 | RRIRERPPRLPRPRPRPQGLPRP | -0.141
73 | RRIRERPPRLPRPRPRPQHQPRP | -0.15
74 | RRIRERPPRLPRPRPRPQILPRP | -0.179
75 | RRIRERPPRLPRPRPRPQIPPRP | -0.237
76 | RRIRERPPRLPRPRPRPQNHPRP | -0.519
77 | RRIRERPPRLPRPRPRPQNTPRP | -0.497
78 | RRIRERPPRLPRPRPRPQNYPRP | -0.409
79 | RRIRERPPRLPRPRPRPQPLPRP | -0.202
80 | RRIRERPPRLPRPRPRPQPWPRP | -0.0127
81 | RRIRERPPRLPRPRPRPQRVPRP | -0.167
82 | RRIRERPPRLPRPRPRPQRYPRP | -0.222
83 | RRIRERPPRLPRPRPRPQSCPRP | 0.00299
84 | RRIRERPPRLPRPRPRPQSMPRP | -0.0801
85 | RRIRERPPRLPRPRPRPQSVPRP | -0.0488
86 | RRIRERPPRLPRPRPRPRAFPRP | 0.189
87 | RRIRERPPRLPRPRPRPRCEPRP | 0.0736
88 | RRIRERPPRLPRPRPRPRCVPRP | 0.0448

Row | Sequence | shrunken log2 fold change
89 | RRIRERPPRLPRPRPRPRFHPRP | -0.447
90 | RRIRERPPRLPRPRPRPRGLPRP | 0.159
91 | RRIRERPPRLPRPRPRPRGNPRP | -0.598
92 | RRIRERPPRLPRPRPRPRGTPRP | 0.0483
93 | RRIRERPPRLPRPRPRPRGVPRP | 0.309
94 | RRIRERPPRLPRPRPRPRHFPRP | -0.419
95 | RRIRERPPRLPRPRPRPRHMPRP | -0.0855
96 | RRIRERPPRLPRPRPRPRHQPRP | -0.164
97 | RRIRERPPRLPRPRPRPRIAPRP | -0.246
98 | RRIRERPPRLPRPRPRPRIYPRP | -0.194
99 | RRIRERPPRLPRPRPRPRKGPRP | 0.0234
100 | RRIRERPPRLPRPRPRPRLCPRP | -0.426
101 | RRIRERPPRLPRPRPRPRLNPRP | -0.156
102 | RRIRERPPRLPRPRPRPRMCPRP | -0.0502
103 | RRIRERPPRLPRPRPRPRMHPRP | 0.0795
104 | RRIRERPPRLPRPRPRPRMMPRP | -0.011
105 | RRIRERPPRLPRPRPRPRMQPRP | -0.0907
106 | RRIRERPPRLPRPRPRPRNKPRP | -0.121
107 | RRIRERPPRLPRPRPRPRPKPRP | 0.194
108 | RRIRERPPRLPRPRPRPRQCPRP | 0.123
109 | RRIRERPPRLPRPRPRPRRTPRP | 0.176

From the supplement of paper PMC9112550, “Optimization of the antimicrobial peptide Bac7 by deep mutational scanning” (BMC Biology, 2022)
